Residue numbers refer to the chain shown, from its start.
T1: endogenous CD9 on HeLa cells (human (endogenous in HeLa), UniProt P21926 1-228)
T1 chain: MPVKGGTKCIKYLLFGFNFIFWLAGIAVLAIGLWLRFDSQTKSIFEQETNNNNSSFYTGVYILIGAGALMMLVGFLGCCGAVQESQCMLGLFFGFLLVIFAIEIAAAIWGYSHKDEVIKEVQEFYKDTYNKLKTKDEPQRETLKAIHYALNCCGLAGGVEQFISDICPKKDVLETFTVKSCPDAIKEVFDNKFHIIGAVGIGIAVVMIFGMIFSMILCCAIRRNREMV

T2: detergent-purified, full-length CD9 (wtCD9-3xSTREP) (human, UniProt P21926 1-228)
T2 chain: T1 chain

T3: full-length EWI-F (human, UniProt Q9P2B2 26-879)
T3 construct: human EWI-F, full length, UniprotKB Q9P2B2; All EWI-F constructs were cloned with an N-terminal cystatin signal peptide; Heterogeneously glycosylated; also called CD9-partner 1; prostaglandin F2 receptor negative regulator; source: HEK293-EBNA cells, co-transfected with Strep3-GFP-CD9-W6; in lysate, co-purified (Strep-Tactin, SEC)
T3 sequence (looked up): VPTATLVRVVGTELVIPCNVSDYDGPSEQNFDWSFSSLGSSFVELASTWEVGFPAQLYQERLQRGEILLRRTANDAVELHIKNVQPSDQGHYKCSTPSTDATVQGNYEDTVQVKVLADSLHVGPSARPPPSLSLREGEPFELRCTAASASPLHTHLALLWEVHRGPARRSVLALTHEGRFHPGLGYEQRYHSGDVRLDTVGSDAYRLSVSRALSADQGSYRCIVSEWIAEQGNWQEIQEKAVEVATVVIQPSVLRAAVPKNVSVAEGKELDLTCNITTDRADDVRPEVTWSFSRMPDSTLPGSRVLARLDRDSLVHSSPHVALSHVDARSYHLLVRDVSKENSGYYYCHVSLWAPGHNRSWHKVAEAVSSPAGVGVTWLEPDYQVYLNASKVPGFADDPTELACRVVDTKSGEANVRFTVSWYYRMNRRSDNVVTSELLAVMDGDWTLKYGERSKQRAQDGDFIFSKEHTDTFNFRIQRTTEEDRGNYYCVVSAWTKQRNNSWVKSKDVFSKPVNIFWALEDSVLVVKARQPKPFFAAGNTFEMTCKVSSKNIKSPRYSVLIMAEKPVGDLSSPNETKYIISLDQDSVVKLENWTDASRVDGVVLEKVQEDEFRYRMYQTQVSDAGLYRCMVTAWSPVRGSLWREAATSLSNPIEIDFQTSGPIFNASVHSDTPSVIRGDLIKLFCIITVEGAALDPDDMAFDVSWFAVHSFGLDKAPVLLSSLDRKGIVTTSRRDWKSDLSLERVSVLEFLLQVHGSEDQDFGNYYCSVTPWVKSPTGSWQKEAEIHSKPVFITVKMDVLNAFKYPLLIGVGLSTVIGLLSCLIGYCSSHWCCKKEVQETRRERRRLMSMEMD

B1: anti-CD9 nanobody 4C8 (VHH)
VHH: EVQLVESGGGLVQAGGSLRLSCAASGRTFSDYVMGWFRQAPGKERTFVARIGWSGDLTYYADSVKGRFTISRDNAKNTVYLQMNSLKPEDTAIYYCAADERWGTGGKFDYWGQGTQVTVSS
notes: they are in the deposited structures PDB 6Z1Z (4C8 alone) and PDB 6Z20 (nanobody chain of CD9EC2-4C8); Selected from a phage library (Neviani et al, 2020); The thrombin-cleavable His tag was removed with thrombin; also called Nb 4C8; source: E. coli BL-21 Codon Plus (DE3)-RIL, periplasmic secretion, purified (HisTrap, desalting; thrombin treatment, Superdex75); not shown: His6, C-terminal, cleaved
B2: anti-CD9 nanobody 4E8 (VHH)
VHH: EVQLVESGGRLVRTGGSLRLSCAASGRTFSNYVMGWFRQAPGKEREVVAAITWSGDITWHADFVKGRFTISRDNAKNTVYLQMNSLKPEDTAVYYCAATERWGLRAPADWGSWGQGTQVTVSS
notes: they are in the deposited structure PDB 6Z1V (nanobody chain of CD9EC2-4E8); Differs from 4C8 in CDR2 and CDR3; The thrombin-cleavable tag was not removed before crystallization; also called Nb 4E8; source: E. coli BL-21 Codon Plus (DE3)-RIL, periplasmic secretion, purified (HisTrap, desalting); not shown: His6, C-terminal, kept
B3: N-Strep3-GFP-tagged CD9-W6 (natural protein, human, UniProt P21926 1-228, looked up)
chain: T1 chain with C9W, C78W, C79W, C87W, C218W, C219W
notes: human CD9 (Tspan29), full length, all palmitoylated cysteines mutated to tryptophan (CD9-W6); The Strep3-GFP tag is followed by a TEV-protease site; The results speak only of 'Strep-GFP-tagged CD9'; the methods name CD9-W6 for these experiments; also called Strep-GFP-tagged CD9; source: HEK293-EBNA cells, co-transfected with EWI-F variants; in lysate (DDM or DDM/digitonin), Strep-Tactin purified, …

How the values were obtained:
[1] = target: T1, endogenous CD9 on HeLa cells; assay: apparent, on HeLa cells
[2] = target: T2, detergent-purified, full-length CD9 …; assay: ELISA; apparent, detergent-purified CD9
[3] = target: T4, detergent-purified, full-length CD9 (wtCD9-3xSTREP) (human, UniProt P21926); assay: ELISA; 100 ng wtCD9-3Strep captured on Strep-Tactin coated wells; serial dilutions of nanobody for 2 h at rt in 2% BSA, 25 mM Hepes pH 7.5, 150 mM NaCl, 0.025% DDM; detection with anti-VHH and IRDye800CW; triplicate; apparent KD by one-site specific binding fit; details: both partners purified
T4 construct: human CD9 (Tspan29), wild type, full length; The construct section lists full-length CD9 with an N-terminal Strep-II tag or an N-terminal Strep3-GFP tag with a TEV site; also called wtCD9-3Strep; source: detergent-purified

[4] = target: T5, CD9–EWI-F_(ΔIg1-5) complex (human, UniProt P21926;Q9P2B2); assay: SEC; purified, EndoHF-treated CD9–EWI-F_(ΔIg1-5) complex incubated with a large excess of 4C8, Superdex 200 10/300 increase in 50 mM Tris pH 7.8, 150 mM NaCl, 0.08% digitonin, 4°C; SDS-PAGE of the peak; details: both partners purified
T5 construct: human CD9 (Tspan29), wild type, full length; as m12; human EWI-F, residues T685-D879, UniprotKB Q9P2B2; as m11; Preformed complex to which 4C8 was added; source: HEK293-EBNA GNT1- cells, co-expressed, co-purified in digitonin (Strep-Tactin), EndoHF treated; not shown: Strep-II, N-terminal, kept; copies: 2 + 2

[5] = target: T6, endogenous CD9 on HeLa cells (human (endogenous in HeLa), UniProt P21926); assay: binding assay on cells in 96-well plates, infrared fluorescence read-out (anti-VHH, IRDye800CW, Odyssey); HeLa cells seeded in 96-well plates, serial dilutions of nanobody for 2 h at 4°C in 1% BSA, 25 mM Hepes pH 7.2 in DMEM; cells fixed with 4% formaldehyde before detection; triplicate; apparent KD by one-site specific binding fit; details: one partner purified
T6 construct: CD9 (Tspan29) endogenous on HeLa cells; also called CD9 endogenously expressed on HeLa cells; cell-membrane embedded CD9; source: endogenous, on HeLa cells

[6] = target: T3, full-length EWI-F; assay: pull-down; Strep3-GFP-CD9-W6 co-transfected with EWI-F variants in 25 ml HEK293-EBNA cultures; lysis in 1% DDM, 0.5% digitonin; Strep-Tactin resin, washes in 0.08% digitonin, elution with desthiobiotin; SDS-PAGE; details: partners not purified

| Binder | Kd [1] | Kd [2] | binding result [3] | binding result [4] | binding result [5] | binding result [6] |
| --- | --- | --- | --- | --- | --- | --- |
| B1 | 0.59 nM | 0.9 nM | binds | binds | binds | – |
| B2 | 32.6 nM | 2.01 nM | binds | – | binds | – |
| B3 | – | – | – | – | – | binds |
